Experimental data from PMC7305185.
Several values for one entry are separate records, joined by “and”; a condition that tells them apart may be missing. Equal entries are not always repeated.

Target: His32 (UniProt position 32, AAQLPHDYCTT)
Assay: NMR
Conditions: 20 °C; McIlvaine (phosphate-citrate) buffer with 2 mM DTT; Apo five-phospho 4E-BP2. The folded β-domain is populated at neutral pH and undergoes non-cooperative acid denaturation as pH is lowered.

With “Eukaryotic translation initiation factor 4E-binding protein 2 (4E-BP2), five-phospho form (5p-4E-BP2) (Homo sapiens (inferred; species of the construct not explicitly stated))” as the substance, how does the pKa read?
Its pKa is 6.0 ± 0.2 and 5.9 ± 0.1 and 6.0 ± 0.3.
